Data reported in article PMC11275528 (mAbs, 2024).

Biological target: T1, mouse asialoglycoprotein receptor 1 (ASGR1), FLAG tagged, expressed on CHO-S cells (mouse, UniProt P34927 1-284)
T1 sequence (looked up): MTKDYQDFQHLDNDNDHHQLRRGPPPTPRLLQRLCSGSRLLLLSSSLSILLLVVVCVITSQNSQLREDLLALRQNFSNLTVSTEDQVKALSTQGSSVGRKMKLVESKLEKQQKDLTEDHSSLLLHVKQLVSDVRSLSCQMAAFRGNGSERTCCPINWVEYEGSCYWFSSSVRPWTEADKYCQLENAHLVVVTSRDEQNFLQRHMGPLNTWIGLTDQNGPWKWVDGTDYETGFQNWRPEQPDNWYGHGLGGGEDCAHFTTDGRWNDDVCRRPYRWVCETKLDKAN
Test: flow cytometry on cells

B1: asialofetuin (ligand)
chain: IPLDPVAGYKEPACDDPDTEQAALAAVDYINKHLPRGYKHTLNQIDSVKVWPRRPTGEVYDIEIDTLETTCHVLDPTPLANCSVRQQTQHAVEGDCDIHVLKQDGQFSVLFTKCDSSPDSAEDVRKLCPDCPLLAPLNDSRVVHAVEVALATFNAESNGSYLQLVEISRAQFVPLPVSVSVEFAVAATDCIAKEVVDPTKCNLLAEKQYGFCKGSVIQKALGGEDVRVTCTLFQTQPVIPQPQPDGAEAEAPSAVPDAAGPTPSAAGPPVASVVVGPSVVAVPLPLHRAHYDLRHTFSGVASVESSSGEAFHVGKTPIVGQPSIPGGPVRLCPGRIRYFKI
modifications: biotinylated (site not stated); desialylated with neuraminidase
- EC50: 53 nM
